# B1: MIA2 (parent)
# chain: DMVSNIELPTRIHEEVYFEPSSSK
# Variants of: B1
# Assay: protein stability index of a GFP-peptide fusion (GPS, HEK-293T) (PSI 1-6); higher = more stable
# Details: c terminus: a fixed tail appended
# 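Further: lentivirally expressed fusions sorted by FACS into six bins by GFP to DsRed ratio, PSI derived from sequencing read proportions per bin multiplied by bin number.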
row,Variant,protein stability index
1,DMVSNIELPTRIHEEVYFEPSSSP,4.08
2,DMVSNIELPTRIHEEVYFEPSSSE,4.11
3,DMVSNIELPTRIHEEVYFEPSSSC,3.66
4,DMVSNIELPTRIHEEVYFEPSSSW,2.52
5,DMVSNIELPTRIHEEVYFEPSSSR,3.85
6,DMVSNIELPTRIHEEVYFEPSSSH,3.56
7,DMVSNIELPTRIHEEVYFEPSSSN,4.17
8,DMVSNIELPTRIHEEVYFEPSSSA,3.64
9,KMVSNIELPTRIHEEVYFEPSSSK,3.93
10,LMVSNIELPTRIHEEVYFEPSSSK,3.11
11,CMVSNIELPTRIHEEVYFEPSSSK,2.86
12,RMVSNIELPTRIHEEVYFEPSSSK,4.25
13,EMVSNIELPTRIHEEVYFEPSSSK,3.16
14,VMVSNIELPTRIHEEVYFEPSSSK,1.98
15,YMVSNIELPTRIHEEVYFEPSSSK,3.42
16,WMVSNIELPTRIHEEVYFEPSSSK,2.63
17,QMVSNIELPTRIHEEVYFEPSSSK,3.95
18,NMVSNIELPTRIHEEVYFEPSSSK,4.15
19,MMVSNIELPTRIHEEVYFEPSSSK,2.73
20,HMVSNIELPTRIHEEVYFEPSSSK,4.67
21,DMVSNIELPTRIHEPVYFEPSSSK,2.96
22,DMVSNIELPTRIHENVYFEPSSSK,3.29
23,DMVSNIELPTRIHEDVYFEPSSSK,4.45
24,DMVSNIELPTRIHESVYFEPSSSK,3.54

row,Variant,protein stability index
1,DMVSNIELPTRIHECVYFEPSSSK,2.97
2,DMVSNIELPTRIHETVYFEPSSSK,3.9
3,DMVSNIELPTRIHEIVYFEPSSSK,2.28
4,DMVSNIELPTRIHEWVYFEPSSSK,2.75
5,DMVSNIELPTRIHEFVYFEPSSSK,2.62
6,DMVSNIELPTRIHEEEYFEPSSSK,5.02
7,DMVSNIELPTRIHEERYFEPSSSK,3.17
8,DMVSNIELPTRIHEEYYFEPSSSK,3.49
9,DMVSNIELPTRIHEEFYFEPSSSK,3.87
10,DMVSNIELPTRIHEEVLFEPSSSK,4.29
11,DMVSNIELPTRIHEEVKFEPSSSK,4.27
12,DMVSNIELPTRIHEEVPFEPSSSK,4.97
13,DMVSNIELPTRIHEEVIFEPSSSK,3.94
14,DMVSNIELPTRIHEEVMFEPSSSK,3.73
15,DMVSNIELPTRIHEEVDFEPSSSK,4.41
16,DMVSNIELPTRIHEEVYFEPSSEK,5.16
17,DMVSNIELPTRIHEEVYFEPSSCK,4
18,DMVSNIELPTRIHEEVYFEPSSHK,3.96
19,DMVSNIELPTRIHEEVYFEPSSYK,4.18
20,DMVSNIELPTRIHEEVYFEPSSGK,4.28
21,DMVSNIELPTRIHEEVYFEPSSIK,3.89
22,DMVSNIELLTRIHEEVYFEPSSSK,3.65
23,DMVSNIELMTRIHEEVYFEPSSSK,3.35
24,DMVSNIELKTRIHEEVYFEPSSSK,3.89

row,Variant,protein stability index
1,DMVSNIELITRIHEEVYFEPSSSK,3.3
2,DMVSNIELATRIHEEVYFEPSSSK,3.46
3,DMVSNIELGTRIHEEVYFEPSSSK,3.53
4,DMVSNIELFTRIHEEVYFEPSSSK,3.01
5,DMVSNIELQTRIHEEVYFEPSSSK,4.08
6,DMVSNIELRTRIHEEVYFEPSSSK,3.6
7,DMVSNIELDTRIHEEVYFEPSSSK,3.46
8,DMVSNIELPTRIHEEVYFEPYSSK,3.05
9,DMVSNIELPTRIHEEVYFEPNSSK,4.19
10,DMVSNIELPTRIHEEVYFEPESSK,4.64
11,DMVSNIELPTRIHEEVYFEPVSSK,3.94
12,DMVSNIELPTRIHEEVYFEPQSSK,3.9
13,DMVSNIELPTRFHEEVYFEPSSSK,3.57
14,DMVSNIELPTRMHEEVYFEPSSSK,3.6
15,DMVSNIELPTREHEEVYFEPSSSK,4.33
16,DMVSNIELPTRLHEEVYFEPSSSK,3.89
17,DMVSNIELPTRAHEEVYFEPSSSK,4.18
18,DMVSNIELPTRSHEEVYFEPSSSK,4.51
19,DMVSNIELPTRQHEEVYFEPSSSK,4.11
20,DMVSNIELPTRDHEEVYFEPSSSK,4.79
21,DMVSNIELPTRYHEEVYFEPSSSK,3.87
22,DMVSNIELPTRGHEEVYFEPSSSK,4.39
23,DYVSNIELPTRIHEEVYFEPSSSK,3.72
24,DGVSNIELPTRIHEEVYFEPSSSK,4.78

row,Variant,protein stability index
1,DVVSNIELPTRIHEEVYFEPSSSK,3.64
2,DFVSNIELPTRIHEEVYFEPSSSK,3.28
3,DKVSNIELPTRIHEEVYFEPSSSK,3.55
4,DQVSNIELPTRIHEEVYFEPSSSK,5.01
5,DSVSNIELPTRIHEEVYFEPSSSK,5.02
6,DEVSNIELPTRIHEEVYFEPSSSK,5.23
7,DCVSNIELPTRIHEEVYFEPSSSK,4.99
8,DMVSNIELPTRIHEEVYFEPSISK,3.13
9,DMVSNIELPTRIHEEVYFEPSKSK,3.9
10,DMVSNIELPTRIHEEVYFEPSMSK,3.81
11,DMVSNIELPTRIHEEVYFEPSGSK,3.85
12,DMVSNIELPTRIHEEVYFEPSASK,4.28
13,DMVSNIELPTRIHEEVYFEPSVSK,3.95
14,DMVSNIELPTRIHEEVYFEPSTSK,4.03
15,DMVSNIELPTRIHDEVYFEPSSSK,3.59
16,DMVSNIELPTRIHQEVYFEPSSSK,3.43
17,DMVSNIELPTRIHTEVYFEPSSSK,3.07
18,DMVSNIELPTRIHYEVYFEPSSSK,1.86
19,DMVSNIELPTRIHWEVYFEPSSSK,2.88
20,DMVSNIELPTRIHGEVYFEPSSSK,3.28
21,DMVSNIELPTRIHHEVYFEPSSSK,3.28
22,DMVSNIELPTRIHEEVYPEPSSSK,4.23
23,DMVSNIELPTRIHEEVYWEPSSSK,3.52
24,DMVSNIELPTRIHEEVYSEPSSSK,4.62

row,Variant,protein stability index
1,DMVSNIELPTRIHEEVYKEPSSSK,3.51
2,DMVSNIELPTRIHEEVYGEPSSSK,4.63
3,DMVSNIELPTRIHEEVYCEPSSSK,3.59
4,DMVSNIEQPTRIHEEVYFEPSSSK,4.53
5,DMVSNIECPTRIHEEVYFEPSSSK,4.02
6,DMVSNIEWPTRIHEEVYFEPSSSK,4.22
7,DMVSNIEFPTRIHEEVYFEPSSSK,4.47
8,DMVSNIERPTRIHEEVYFEPSSSK,3.64
9,DMVSNIEEPTRIHEEVYFEPSSSK,5.22
10,DMVSNIEYPTRIHEEVYFEPSSSK,3.52
11,DMVSNIESPTRIHEEVYFEPSSSK,4.5
12,DMVSNIELPWRIHEEVYFEPSSSK,3.27
13,DMVSNIELPKRIHEEVYFEPSSSK,3.4
14,DMVSNIELPFRIHEEVYFEPSSSK,3.86
15,DMVSNIELPMRIHEEVYFEPSSSK,3.81
16,DMVSNIELPPRIHEEVYFEPSSSK,4
17,DMVSNIELPVRIHEEVYFEPSSSK,3.65
18,DMVSNIELPQRIHEEVYFEPSSSK,4.44
19,DMVINIELPTRIHEEVYFEPSSSK,1.93
20,DMVLNIELPTRIHEEVYFEPSSSK,3.12
21,DMVGNIELPTRIHEEVYFEPSSSK,3.82
22,DMVCNIELPTRIHEEVYFEPSSSK,3.44
23,DMVKNIELPTRIHEEVYFEPSSSK,4.07
24,DMVVNIELPTRIHEEVYFEPSSSK,3.33

row,Variant,protein stability index
1,DMVENIELPTRIHEEVYFEPSSSK,4.48
2,DMVRNIELPTRIHEEVYFEPSSSK,3.97
3,DMVDNIELPTRIHEEVYFEPSSSK,3.98
4,DMVSNIELPTCIHEEVYFEPSSSK,3.62
5,DMVSNIELPTYIHEEVYFEPSSSK,3.26
6,DMVSNIELPTVIHEEVYFEPSSSK,4.14
7,DMVSNIELPTHIHEEVYFEPSSSK,3.43
8,DMVSNIELPTRIDEEVYFEPSSSK,3.59
9,DMVSNIELPTRISEEVYFEPSSSK,3.33
10,DMVSNIELPTRIYEEVYFEPSSSK,3.57
11,DMVSNIELPTRIVEEVYFEPSSSK,3.62
12,DMVSNIELPTRIIEEVYFEPSSSK,3.42
13,DMVSNIELPTRITEEVYFEPSSSK,3.02
14,DMVSNIELPTRIGEEVYFEPSSSK,4.05
15,DMVSNIELPTRIWEEVYFEPSSSK,3.15
16,DMVSNIELPTRIMEEVYFEPSSSK,3.02
17,DMVSNIELPTRIQEEVYFEPSSSK,3.84
18,DMVSNIELPTRICEEVYFEPSSSK,3.37
19,DMVSNAELPTRIHEEVYFEPSSSK,4.51
20,DMVSNHELPTRIHEEVYFEPSSSK,4.34
21,DMVSNSELPTRIHEEVYFEPSSSK,4.07
22,DMVSNVELPTRIHEEVYFEPSSSK,4.18
23,DMVSNWELPTRIHEEVYFEPSSSK,3.32
24,DMVSNEELPTRIHEEVYFEPSSSK,5.27

row,Variant,protein stability index
1,DMVSNFELPTRIHEEVYFEPSSSK,4.08
2,DMVSNLELPTRIHEEVYFEPSSSK,4.16
3,DMVSNQELPTRIHEEVYFEPSSSK,4.19
4,DMVSNPELPTRIHEEVYFEPSSSK,4.4
5,DMVSNILLPTRIHEEVYFEPSSSK,3.16
6,DMVSNIGLPTRIHEEVYFEPSSSK,3.58
7,DMVSNISLPTRIHEEVYFEPSSSK,3.02
8,DMVSNIVLPTRIHEEVYFEPSSSK,3.53
9,DMVSNITLPTRIHEEVYFEPSSSK,2.78
10,DMVSNIRLPTRIHEEVYFEPSSSK,3.33
11,DMVSNIQLPTRIHEEVYFEPSSSK,2.9
12,DMVSNIELPTRIHEEVYFTPSSSK,3.4
13,DMVSNIELPTRIHEEVYFVPSSSK,3.15
14,DMVSNIELPTRIHEEVYFSPSSSK,3.82
15,DMVSNIELPTRIHEEVYFWPSSSK,2.72
16,DMVSNIELPTRIHEEVYFDPSSSK,3.38
17,DMVSNIELPTRIHEEVYFMPSSSK,3.31
18,DMVSHIELPTRIHEEVYFEPSSSK,4.3
19,DMVSKIELPTRIHEEVYFEPSSSK,4.43
20,DMVSIIELPTRIHEEVYFEPSSSK,3.86
21,DMVSRIELPTRIHEEVYFEPSSSK,3.92
22,DMVSPIELPTRIHEEVYFEPSSSK,5.11
23,DMVSVIELPTRIHEEVYFEPSSSK,3.5
24,DMVSEIELPTRIHEEVYFEPSSSK,4.18

row,Variant,protein stability index
1,DMVSLIELPTRIHEEVYFEPSSSK,3.19
2,DMNSNIELPTRIHEEVYFEPSSSK,3.86
3,DMCSNIELPTRIHEEVYFEPSSSK,3.97
4,DMHSNIELPTRIHEEVYFEPSSSK,3.56
5,DMDSNIELPTRIHEEVYFEPSSSK,3.89
6,DMRSNIELPTRIHEEVYFEPSSSK,4.56
7,DMTSNIELPTRIHEEVYFEPSSSK,3.04
8,DMYSNIELPTRIHEEVYFEPSSSK,3.87
9,DMPSNIELPTRIHEEVYFEPSSSK,4.1
10,DMGSNIELPTRIHEEVYFEPSSSK,4.23
11,DMMSNIELPTRIHEEVYFEPSSSK,4.09
12,DMVSNIELPTRIHEEVYFEVSSSK,2.56
13,DMVSNIELPTRIHEEVYFEYSSSK,2.99
14,DMVSNIELPTRIHEEVYFEWSSSK,2.63
15,DMVSNIELPTRIHEEVYFEQSSSK,4.02
16,DMVSNIELPTRIHEEVYFENSSSK,4.12
17,DMVSNIELPTRIHEEVYFEDSSSK,4.6
18,DMVSNIELPTRIHEEVYFEMSSSK,1.88
19,DMVSNIELPTRIHEEVYFELSSSK,2.72
20,DMVSNIELPTRIHEEVYFEHSSSK,4.06

# Reference: the supplement of paper PMC10567573
